{"source": "paper PMC5109244", "about": "“A pH‐ and ionic strength‐dependent conformational change in the neck region regulates DNGR‐1 function in dendritic cells” (The EMBO Journal, 2016)", "target": "the molecule itself", "assay": "non-reducing SDS-PAGE and Western blot; supernatants of 293F cells with FLAG-tagged ECD proteins, Laemmli buffer without reducing agent, HRP-conjugated anti-FLAG detection", "data": [{"protein": "human DNGR-1 ECD (extracellular domain of human DNGR-1) (domain or fragment, glycosylated (mobility augmented by PNGase F), human DNGR-1 (CLEC9A), single isoform, extracellular domain K57–V241; Disulfide-bonded homodimer; also called human ECD; human isoform; source: 293F cells, transient transfection) not shown", "values": [{"measurement": "stoichiometry N", "result": 2}]}]}
